Assay results: PMC10539301, “Structure of the human ATAD2 AAA+ histone chaperone reveals mechanism of regulation and inter-subunit communication” (Communications Biology, 2023)

B1: N-terminally truncated ATAD2 (aa 403-1390), wild type (domain or fragment, human, UniProt Q6PL18 403-1390, looked up)
chain: DRMKIGASLADVDPMQLDSSVRFDSVGGLSNHIAALKEMVVFPLLYPEVFEKFKIQPPRGCLFYGPPGTGKTLVARALANECSQGDKRVAFFMRKGADCLSKWVGESERQLRLLFDQAYQMRPSIIFFDEIDGLAPVRSSRQDQIHSSIVSTLLALMDGLDSRGEIVVIGATNRLDSIDPALRRPGRFDREFLFSLPDKEARKEILKIHTRDWNPKPLDTFLEELAENCVGYCGADIKSICAEAALCALRRRYPQIYTTSEKLQLDLSSINISAKDFEVAMQKMIPASQRAVTSPGQALSTVVKPLLQNTVDKILEALQRVFPHAEFRTNKTLDSDISCPLLESDLAYSDDDVPSVYENGLSQKSSHKAKDNFNFLHLNRNACYQPMSFRPRILIVGEPGFGQGSHLAPAVIHALEKFTVYTLDIPVLFGVSTTSPEETCAQVIREAKRTAPSIVYVPHIHVWWEIVGPTLKATFTTLLQNIPSFAPVLLLATSDKPHSALPEEVQELFIRDYGEIFNVQLPDKEERTKFFEDLILKQAAKPPISKKKAVLQALEVLPVAPPPEPRSLTAEEVKRLEEQEEDTFRELRIFLRNVTHRLAIDKRFRVFTKPVDPDEVPDYVTVIKQPMDLSSVISKIDLHKYLTVKDYLRDIDLICSNALEYNPDRDPGDRLIRHRACALRDTAYAIIKEELDEDFEQLCEEIQESRKKRGCSSSKYAPSYYHVMPKQNSTLVGDKRSDPEQNEKLKTPSTPVACSTPAQLKRKIRKKSNWYLGTIKKRRKISQAKDDSQNAIDHKIESDTEETQDTSVDHNETGNTGESSVEENEKQQNASESKLELRNNSNTCNIENELEDSRKTTACTELRDKIACNGDASSSQIIHISDENEGKEMCVLRMTRARRSQVEQQQLITVEKALAILSQPTPSLVVDHERLKNLLKTVVKKSQNYNIFQLENLYAVISQCIYRHRKDHDKTSLIQKMEQEVENFSCSR
notes: ATAD2 (ATPase family AAA domain-containing 2), human, aa 403-1390, from a codon-optimized synthetic full-length gene (Genscript); The vector has a Tev protease site after the 3xFlag tag; No cleavage step is described in the purification; also called wild type ATAD2
B2: ATAD2 Walker B mutant (E532Q), aa 403-1390 (domain or fragment, human, UniProt Q6PL18 403-1390, looked up)
chain: DRMKIGASLADVDPMQLDSSVRFDSVGGLSNHIAALKEMVVFPLLYPEVFEKFKIQPPRGCLFYGPPGTGKTLVARALANECSQGDKRVAFFMRKGADCLSKWVGESERQLRLLFDQAYQMRPSIIFFDQIDGLAPVRSSRQDQIHSSIVSTLLALMDGLDSRGEIVVIGATNRLDSIDPALRRPGRFDREFLFSLPDKEARKEILKIHTRDWNPKPLDTFLEELAENCVGYCGADIKSICAEAALCALRRRYPQIYTTSEKLQLDLSSINISAKDFEVAMQKMIPASQRAVTSPGQALSTVVKPLLQNTVDKILEALQRVFPHAEFRTNKTLDSDISCPLLESDLAYSDDDVPSVYENGLSQKSSHKAKDNFNFLHLNRNACYQPMSFRPRILIVGEPGFGQGSHLAPAVIHALEKFTVYTLDIPVLFGVSTTSPEETCAQVIREAKRTAPSIVYVPHIHVWWEIVGPTLKATFTTLLQNIPSFAPVLLLATSDKPHSALPEEVQELFIRDYGEIFNVQLPDKEERTKFFEDLILKQAAKPPISKKKAVLQALEVLPVAPPPEPRSLTAEEVKRLEEQEEDTFRELRIFLRNVTHRLAIDKRFRVFTKPVDPDEVPDYVTVIKQPMDLSSVISKIDLHKYLTVKDYLRDIDLICSNALEYNPDRDPGDRLIRHRACALRDTAYAIIKEELDEDFEQLCEEIQESRKKRGCSSSKYAPSYYHVMPKQNSTLVGDKRSDPEQNEKLKTPSTPVACSTPAQLKRKIRKKSNWYLGTIKKRRKISQAKDDSQNAIDHKIESDTEETQDTSVDHNETGNTGESSVEENEKQQNASESKLELRNNSNTCNIENELEDSRKTTACTELRDKIACNGDASSSQIIHISDENEGKEMCVLRMTRARRSQVEQQQLITVEKALAILSQPTPSLVVDHERLKNLLKTVVKKSQNYNIFQLENLYAVISQCIYRHRKDHDKTSLIQKMEQEVENFSCSR
notes: ATAD2 (ATPase family AAA domain-containing 2), human, aa 403-1390, Walker B mutation E532Q; A Tev site follows the tag, and no cleavage step is described; also called ATAD2 (in the structure sections); not shown: 3xFlag, N-terminal, kept
B3: ATAD2 LD/Walker B triple mutant (D415A/E532Q/R540A), aa 403-1390 (domain or fragment, human, UniProt Q6PL18 403-1390, looked up)
chain: DRMKIGASLADVAPMQLDSSVRFDSVGGLSNHIAALKEMVVFPLLYPEVFEKFKIQPPRGCLFYGPPGTGKTLVARALANECSQGDKRVAFFMRKGADCLSKWVGESERQLRLLFDQAYQMRPSIIFFDQIDGLAPVASSRQDQIHSSIVSTLLALMDGLDSRGEIVVIGATNRLDSIDPALRRPGRFDREFLFSLPDKEARKEILKIHTRDWNPKPLDTFLEELAENCVGYCGADIKSICAEAALCALRRRYPQIYTTSEKLQLDLSSINISAKDFEVAMQKMIPASQRAVTSPGQALSTVVKPLLQNTVDKILEALQRVFPHAEFRTNKTLDSDISCPLLESDLAYSDDDVPSVYENGLSQKSSHKAKDNFNFLHLNRNACYQPMSFRPRILIVGEPGFGQGSHLAPAVIHALEKFTVYTLDIPVLFGVSTTSPEETCAQVIREAKRTAPSIVYVPHIHVWWEIVGPTLKATFTTLLQNIPSFAPVLLLATSDKPHSALPEEVQELFIRDYGEIFNVQLPDKEERTKFFEDLILKQAAKPPISKKKAVLQALEVLPVAPPPEPRSLTAEEVKRLEEQEEDTFRELRIFLRNVTHRLAIDKRFRVFTKPVDPDEVPDYVTVIKQPMDLSSVISKIDLHKYLTVKDYLRDIDLICSNALEYNPDRDPGDRLIRHRACALRDTAYAIIKEELDEDFEQLCEEIQESRKKRGCSSSKYAPSYYHVMPKQNSTLVGDKRSDPEQNEKLKTPSTPVACSTPAQLKRKIRKKSNWYLGTIKKRRKISQAKDDSQNAIDHKIESDTEETQDTSVDHNETGNTGESSVEENEKQQNASESKLELRNNSNTCNIENELEDSRKTTACTELRDKIACNGDASSSQIIHISDENEGKEMCVLRMTRARRSQVEQQQLITVEKALAILSQPTPSLVVDHERLKNLLKTVVKKSQNYNIFQLENLYAVISQCIYRHRKDHDKTSLIQKMEQEVENFSCSR
notes: ATAD2, human, aa 403-1390, with D415A, E532Q and R540A; source: SF9 cells (baculovirus), purified

Columns and labels:
[1] = biological target: the molecule itself; assay: SEC + native gel or EMSA + other: negative stain electron microscopy; purified ATAD2 (aa 403-1390) variants; wild type in the absence and presence of ATP; Supplementary Fig. 1
[2] = biological target: the molecule itself; assay: cryo-EM structure; ATAD2 Walker B mutant and refolded H3/H4 or H3/H4K5Q mixed 1:1.5 in 150 mM NaCl, cross-linked with 1 mM DSS, purified on a 10-30% sucrose gradient; vitrified at 1.2 mg/mL with 1 mM Mg-ATP; classes I-III at 3.8, 4.3, 4.3 Å
[3] = biological target: T1, Histone H3/H4 complex (X. laevis, wild type, refolded) (X. laevis, UniProt P84233 1-136; P62799 1-103); assay: cross-linking; DSS 1 mM, 30 min, 37 °C, in 25 mM HEPES pH 7.5, 150 mM NaCl, 5% glycerol, 1 mM DTT; sucrose gradient fraction of hexameric ATAD2; cross-links found by mass spectrometry (XL-MS); conditions: both partners purified
T1 construct: It was pooled as the H3/H4 tetramer in 2 M NaCl and diluted to 150 mM NaCl before mixing; also called wild type H3/H4

[4] = biological target: Histone H3 (X. laevis, recombinant) (X. laevis, UniProt P84233 1-136); assay: as above; conditions: both partners purified
[5] = biological target: Histone H4 (X. laevis, recombinant) (X. laevis, UniProt P62799 1-103); assay: as above; conditions: both partners purified

Row | Binder | binding result [1] | stoichiometry N [2] | binding result [3] | binding result [4] | binding result [5]
1 | B1 | binds |  |  |  | 
2 | B2 |  | 6 | binds | binds | binds
3 | B3 | binds |  |  |  | 
